Patent US20220112276A1 (Janssen / Centocor, published 2022)

T1: mouse pIgR extracellular domain (ECD) (mouse, UniProt O70570 19-645)
T1 construct: Bought from R&D Systems (Cat 2800-PG-050); also called mpIgR ECD
T1 sequence: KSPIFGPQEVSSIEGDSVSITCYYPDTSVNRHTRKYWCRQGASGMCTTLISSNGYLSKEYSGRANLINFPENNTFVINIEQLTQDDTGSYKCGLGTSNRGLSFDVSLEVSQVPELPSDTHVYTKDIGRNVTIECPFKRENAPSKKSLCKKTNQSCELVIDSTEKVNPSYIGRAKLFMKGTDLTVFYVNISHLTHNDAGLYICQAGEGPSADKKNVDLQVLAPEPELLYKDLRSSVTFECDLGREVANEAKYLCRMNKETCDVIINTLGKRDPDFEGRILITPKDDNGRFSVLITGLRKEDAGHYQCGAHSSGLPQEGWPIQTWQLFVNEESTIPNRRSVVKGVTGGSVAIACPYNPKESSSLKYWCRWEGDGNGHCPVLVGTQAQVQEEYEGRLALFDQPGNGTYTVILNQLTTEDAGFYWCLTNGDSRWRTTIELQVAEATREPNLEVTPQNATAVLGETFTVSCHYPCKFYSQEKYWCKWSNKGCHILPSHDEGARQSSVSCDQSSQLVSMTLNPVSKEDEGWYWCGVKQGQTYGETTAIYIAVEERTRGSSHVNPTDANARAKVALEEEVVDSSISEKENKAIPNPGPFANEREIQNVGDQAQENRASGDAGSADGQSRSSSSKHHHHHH

T2: rat pIgR extracellular domain (rat, UniProt P15083 19-643)
T2 construct: extracellular domain
T2 sequence (looked up): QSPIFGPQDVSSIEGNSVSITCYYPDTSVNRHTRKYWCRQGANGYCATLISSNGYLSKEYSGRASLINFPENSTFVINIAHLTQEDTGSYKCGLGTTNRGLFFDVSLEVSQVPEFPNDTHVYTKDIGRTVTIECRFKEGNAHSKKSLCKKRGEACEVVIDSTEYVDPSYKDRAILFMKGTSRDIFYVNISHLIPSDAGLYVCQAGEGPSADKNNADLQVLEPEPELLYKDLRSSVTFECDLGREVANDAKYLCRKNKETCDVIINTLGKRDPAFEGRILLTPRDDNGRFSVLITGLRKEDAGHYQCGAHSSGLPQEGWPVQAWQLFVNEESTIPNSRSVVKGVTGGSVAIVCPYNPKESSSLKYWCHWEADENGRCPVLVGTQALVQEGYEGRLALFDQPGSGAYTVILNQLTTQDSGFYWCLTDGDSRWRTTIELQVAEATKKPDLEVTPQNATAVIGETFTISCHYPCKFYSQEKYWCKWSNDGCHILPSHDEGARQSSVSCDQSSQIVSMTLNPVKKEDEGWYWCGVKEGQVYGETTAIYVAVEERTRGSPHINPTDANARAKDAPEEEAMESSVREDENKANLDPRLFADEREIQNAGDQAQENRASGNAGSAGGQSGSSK


Assays:
[1] = target: T3, human pIgR extracellular domain (ECD) (human, UniProt P01833 19-638); assay: SPR
T3 construct: Bought from R&D Systems (Cat 2717-PG-050); also called hpIgR ECD
T3 sequence (P01833 other isoform, or with tags, fused parts or gaps): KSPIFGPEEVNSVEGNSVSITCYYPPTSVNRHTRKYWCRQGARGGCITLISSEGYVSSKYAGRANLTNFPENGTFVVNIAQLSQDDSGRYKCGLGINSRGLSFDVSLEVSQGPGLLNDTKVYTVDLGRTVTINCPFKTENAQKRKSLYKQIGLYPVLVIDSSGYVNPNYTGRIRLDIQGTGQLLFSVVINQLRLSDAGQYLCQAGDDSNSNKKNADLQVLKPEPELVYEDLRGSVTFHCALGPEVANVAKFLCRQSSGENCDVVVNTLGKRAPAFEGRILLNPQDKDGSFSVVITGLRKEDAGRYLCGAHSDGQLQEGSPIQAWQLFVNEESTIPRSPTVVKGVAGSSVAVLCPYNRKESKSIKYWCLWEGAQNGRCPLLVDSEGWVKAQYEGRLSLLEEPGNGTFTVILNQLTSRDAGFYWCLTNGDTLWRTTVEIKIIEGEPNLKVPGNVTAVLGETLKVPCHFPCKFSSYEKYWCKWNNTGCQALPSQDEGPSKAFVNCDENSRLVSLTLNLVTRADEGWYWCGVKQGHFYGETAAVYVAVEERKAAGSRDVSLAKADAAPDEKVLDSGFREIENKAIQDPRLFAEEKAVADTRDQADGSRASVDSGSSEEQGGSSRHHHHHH

[2] = target: T1, mouse pIgR extracellular domain (ECD); assay: SPR, VHH captured by anti-Fc, ECD analyte
Summary of the method: (§1)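 Anti-human Fc surface captured VHH at 0.5 ug/ml (~200-300 RU); running buffer HBSP with 100 ug/ml BSA, 30 μL/min. Single-cycle kinetics with ECD injected low to high from 30 nM in 3-fold dilutions, dissociation 30 min. Double-referenced data globally fit to 1:1 Langmuir model for kon, koff, KD.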

[3] = target: T4, cynomolgus monkey pIgR extracellular domain (cynomolgus monkey, UniProt A0A2K5WMU9 19-638); assay: SPR, VHH captured by anti-Fc, ECD analyte
T4 construct: extracellular domain
T4 sequence (A0A2K5WMU9 entry or part of it): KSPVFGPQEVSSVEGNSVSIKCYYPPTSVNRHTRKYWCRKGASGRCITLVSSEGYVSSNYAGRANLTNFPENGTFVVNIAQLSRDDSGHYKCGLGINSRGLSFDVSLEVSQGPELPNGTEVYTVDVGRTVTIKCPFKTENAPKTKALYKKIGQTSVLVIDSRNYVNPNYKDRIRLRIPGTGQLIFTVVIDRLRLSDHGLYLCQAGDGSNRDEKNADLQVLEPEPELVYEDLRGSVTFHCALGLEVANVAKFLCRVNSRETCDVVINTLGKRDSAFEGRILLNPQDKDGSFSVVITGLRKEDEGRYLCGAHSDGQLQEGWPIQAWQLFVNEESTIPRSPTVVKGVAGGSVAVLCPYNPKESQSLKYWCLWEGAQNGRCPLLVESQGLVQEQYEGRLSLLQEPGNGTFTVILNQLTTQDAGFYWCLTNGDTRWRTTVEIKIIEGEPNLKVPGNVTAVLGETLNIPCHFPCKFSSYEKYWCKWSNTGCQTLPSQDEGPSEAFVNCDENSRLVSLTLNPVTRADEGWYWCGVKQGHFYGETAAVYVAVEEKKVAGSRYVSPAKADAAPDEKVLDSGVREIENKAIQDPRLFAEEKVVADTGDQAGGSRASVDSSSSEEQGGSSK
Summary of the method: as §1

[4] = target: T2, rat pIgR extracellular domain; assay: SPR, VHH captured by anti-Fc, ECD analyte
Summary of the method: as §1

Binder	binding result [1]	Kd [2]	Kd [3]	Kd [4]
01E11R2 VHH Mono-Fc (Fc fusion) QVQLVESGGGLVQTGGSLRLSCAASGLTFSSYTMGWFRQAPGKEREFVAAISWGGASTWYADSVKGRFTISRDNAKTMVYLQMNGLKPEDTAVYYCAKGRNNGYATAVRAYDYWGQGTLVTVSSSPAPELLGGPSVFLFPPKPKDTLMISRTPEVTCVVVDVSHEDPEVKFNWYVDGVEVHNAKTKPREEQYNSTYRVVSVLTVLHQDWLNGKEYKCKVSNKALPAPIEKTISKAKGQPREPQVYTKPPSREEMTKNQVSLSCLVKGFYPSDIAVEWESNGQPENNYKTTVPVLDSDGSFRLASYLTVDKSRWQQGNVFSCSVMHEALHNHYTQKSLSLSPGK	no binding (tested: 30 nM)	20.6 nM	86.1 nM	22.5 nM
01C03R3L VHH Mono-Fc (Fc fusion) QVQLVESGGGLVQPGGRLRLSCAASGSIFSIRDMGWYRQAPGKQRELVAIFARGGSTHYADSVKGRFTISRDNAKNTVYLQMNSLEPEDTAAYYCNAEVATMIQPGFRDYWGQGTLVTVSSSPAPELLGGPSVFLFPPKPKDTLMISRTPEVTCVVVDVSHEDPEVKFNWYVDGVEVHNAKTKPREEQYNSTYRVVSVLTVLHQDWLNGKEYKCKVSNKALPAPIEKTISKAKGQPREPQVYTKPPSREEMTKNQVSLSCLVKGFYPSDIAVEWESNGQPENNYKTTVPVLDSDGSFRLASYLTVDKSRWQQGNVFSCSVMHEALHNHYTQKSLSLSPGK	no binding (tested: 30 nM)	33.1 nM		16 nM
02B03R3 VHH Mono-Fc (Fc fusion) EVQLVESGGGLVQSGGQLRLSCAASGSIASIRDMAWYRQAPGKQRELVAIFARGGTTHYADSVKGRFTISRDNAKNTVYLQMNSLEPEDTAAYYCNAEVATMFQPGFRDYWGRGTLVTVSSSPAPELLGGPSVFLFPPKPKDTLMISRTPEVTCVVVDVSHEDPEVKFNWYVDGVEVHNAKTKPREEQYNSTYRVVSVLTVLHQDWLNGKEYKCKVSNKALPAPIEKTISKAKGQPREPQVYTKPPSREEMTKNQVSLSCLVKGFYPSDIAVEWESNGQPENNYKTTVPVLDSDGSFRLASYLTVDKSRWQQGNVFSCSVMHEALHNHYTQKSLSLSPGK	no binding (tested: 30 nM)	2.76 nM		1.32 nM
02D06R3 VHH Mono-Fc (Fc fusion) QVQLVESGGGLVQPGGRLRLSCAASGSIFSIRDMAWYRQAPGKQREWVAIAARGGSTHYADSVKGRFTISRDNAKNTVYLQMNTLEPEDTAAYYCNAEVATMIQPGFRDYWGQGTQVTVSSSPAPELLGGPSVFLFPPKPKDTLMISRTPEVTCVVVDVSHEDPEVKFNWYVDGVEVHNAKTKPREEQYNSTYRVVSVLTVLHQDWLNGKEYKCKVSNKALPAPIEKTISKAKGQPREPQVYTKPPSREEMTKNQVSLSCLVKGFYPSDIAVEWESNGQPENNYKTTVPVLDSDGSFRLASYLTVDKSRWQQGNVFSCSVMHEALHNHYTQKSLSLSPGK	no binding (tested: 30 nM)	1.34 nM		0.448 nM
02H11R3 VHH Mono-Fc (Fc fusion) EVQLVESGGGSVQAGGSLRLSCAASGRTFSNYAMGWFRQAPGKEREFVAGISRSGGSTYSADSVKGRFTISRDNAKNTVYLQMNSLKPEDTAVYYCAADGLDYALGFRGDYWGQGTQVTVSSSPAPELLGGPSVFLFPPKPKDTLMISRTPEVTCVVVDVSHEDPEVKFNWYVDGVEVHNAKTKPREEQYNSTYRVVSVLTVLHQDWLNGKEYKCKVSNKALPAPIEKTISKAKGQPREPQVYTKPPSREEMTKNQVSLSCLVKGFYPSDIAVEWESNGQPENNYKTTVPVLDSDGSFRLASYLTVDKSRWQQGNVFSCSVMHEALHNHYTQKSLSLSPGK	no binding (tested: 30 nM)	0.71 nM		1.74 nM
01G03R3L VHH Mono-Fc (Fc fusion) QVQLVESGGGSVQAGGSLRLSCAASGRTFSNYAMGWFRQAPGKEREFVAGISRSGGSTYSADSVKGRFTISRDNAKNTVYLQMNSLKPEDTAVYYCAADGLDYALGFRGDYWGQGTLVTVSSSPAPELLGGPSVFLFPPKPKDTLMISRTPEVTCVVVDVSHEDPEVKFNWYVDGVEVHNAKTKPREEQYNSTYRVVSVLTVLHQDWLNGKEYKCKVSNKALPAPIEKTISKAKGQPREPQVYTKPPSREEMTKNQVSLSCLVKGFYPSDIAVEWESNGQPENNYKTTVPVLDSDGSFRLASYLTVDKSRWQQGNVFSCSVMHEALHNHYTQKSLSLSPGK	no binding (tested: 30 nM)	0.796 nM		1.61 nM
